Kd, percent decrease of Caspase-3 bound to immobilized Hsp70 (against U-937wt cells treated with etoposide alone) and fold lower amount bound with BT44 than without BT44 data for three compounds are collected here from PMC6163214, “Etoposide-Induced Apoptosis in Cancer Cells Can Be Reinforced by an Uncoupled Link between Hsp70 and Caspase-3” (International Journal of Molecular Sciences, 2018).

Test [1] addresses T1, Hsp70 (Homo sapiens, UniProt P0DMV8).
T1 construct: gene HSPA1A
The experiment in a line: microscale thermophoresis with NT-647-labeled purified Hsp70; supported by DARTS and substrate-binding assay. On the technique in general: In MST a laser heats a spot of the sample, and binding alters the fluorescence response.

Test [2] deals with Caspase-3 (human (endogenous in U-937)) (UniProt P42574). As to the kind of experiment: ELISA; same competitive protein-protein interaction assay, read as competition: cellular Hsp70 of the lysate (raised by heat shock or hsp70 transfection) holds Caspase-3 of the lysate away from the immobilised pure Hsp70. Background: ELISA stands for enzyme-linked immunosorbent assay.
Test [3] shares this target. The experiment in a line: co-IP; as a4, but biotinylated Hsp70 pretreated with 32 µM BT44.

Sequence of Caspase-3 (human (endogenous in U-937)) (P42574 whole entry): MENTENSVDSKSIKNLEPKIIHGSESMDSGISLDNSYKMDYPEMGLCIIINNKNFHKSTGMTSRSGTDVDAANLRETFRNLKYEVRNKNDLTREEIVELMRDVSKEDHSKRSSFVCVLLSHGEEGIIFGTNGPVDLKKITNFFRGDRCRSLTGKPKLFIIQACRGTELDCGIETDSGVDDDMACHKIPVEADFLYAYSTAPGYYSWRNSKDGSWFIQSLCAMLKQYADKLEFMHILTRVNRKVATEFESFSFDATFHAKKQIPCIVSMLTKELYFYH
Sequence of Cellular Hsp70 of U-937 cells (P0DMV8 whole entry): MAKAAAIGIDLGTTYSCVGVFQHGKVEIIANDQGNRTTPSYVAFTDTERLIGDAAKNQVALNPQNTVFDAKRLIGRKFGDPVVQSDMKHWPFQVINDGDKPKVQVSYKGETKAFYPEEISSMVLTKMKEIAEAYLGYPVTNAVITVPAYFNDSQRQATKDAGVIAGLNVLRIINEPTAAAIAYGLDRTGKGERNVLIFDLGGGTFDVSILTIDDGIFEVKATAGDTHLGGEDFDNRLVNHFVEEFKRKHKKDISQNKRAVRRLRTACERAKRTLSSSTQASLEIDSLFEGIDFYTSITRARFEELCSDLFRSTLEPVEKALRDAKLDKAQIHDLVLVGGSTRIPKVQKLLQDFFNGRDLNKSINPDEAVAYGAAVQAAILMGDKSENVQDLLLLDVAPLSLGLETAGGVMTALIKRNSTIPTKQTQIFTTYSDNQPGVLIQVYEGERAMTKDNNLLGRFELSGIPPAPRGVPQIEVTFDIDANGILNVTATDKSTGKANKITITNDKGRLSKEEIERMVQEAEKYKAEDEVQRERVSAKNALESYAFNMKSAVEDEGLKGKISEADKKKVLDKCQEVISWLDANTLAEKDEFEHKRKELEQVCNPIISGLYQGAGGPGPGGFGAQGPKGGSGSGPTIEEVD
T1 sequence (P0DMV8 2-641): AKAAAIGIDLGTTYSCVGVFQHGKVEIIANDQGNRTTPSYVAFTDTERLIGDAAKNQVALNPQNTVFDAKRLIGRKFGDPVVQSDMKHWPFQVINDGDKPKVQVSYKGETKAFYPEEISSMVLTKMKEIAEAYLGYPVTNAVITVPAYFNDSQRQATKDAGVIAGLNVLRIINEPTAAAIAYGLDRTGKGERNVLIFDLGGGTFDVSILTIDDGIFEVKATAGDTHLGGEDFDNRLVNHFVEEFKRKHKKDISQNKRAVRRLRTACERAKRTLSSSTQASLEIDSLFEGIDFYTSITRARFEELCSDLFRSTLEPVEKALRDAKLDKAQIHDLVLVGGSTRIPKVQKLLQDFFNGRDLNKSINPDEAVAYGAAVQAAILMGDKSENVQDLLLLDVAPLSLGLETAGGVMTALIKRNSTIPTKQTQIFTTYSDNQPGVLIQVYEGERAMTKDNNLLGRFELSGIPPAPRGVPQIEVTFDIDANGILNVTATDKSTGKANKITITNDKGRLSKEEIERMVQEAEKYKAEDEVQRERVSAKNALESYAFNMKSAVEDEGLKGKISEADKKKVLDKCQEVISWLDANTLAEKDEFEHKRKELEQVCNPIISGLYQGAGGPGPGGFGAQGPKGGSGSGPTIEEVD
Sequence of Biotinylated Hsp70 (P0DMV8 whole entry): as the sequence (P0DMV8 whole entry) above

On to `CCc1cc(-c2n[nH]cc2-c2ccc3c(c2)OCO3)c(O)cc1OC1OC(CO)C(O)C(O)C1O` (stereo not drawn) [BT44, 2-[4-(4-Benzo[1,3]dioxol-5-yl-1H-pyrazol-3-yl)-2-ethyl-5-hydroxy-phenoxy]-6-hydroxymethyl-tetrahydro-pyran-3,4,5-triol], for which the affinity in test [1], expressed as Kd, was 5.2 ± 0.3 µM.
“Cellular Hsp70 of U-937 cells (from UniProt P0DMV8 1-641) (natural protein)” gave a percent decrease of Caspase-3 bound to immobilized Hsp70 (against U-937wt cells treated with etoposide alone) in test [2] of 35 to 50%.
As for “Biotinylated Hsp70 (from UniProt P0DMV8 1-641) (natural protein)”, in test [3], the fold lower amount bound with BT44 than without BT44 was 10 fold.
